# Measured values as given in PMC9482650, “Quantitative fragmentomics allow affinity mapping of interactomes” (Nature Communications, 2022).
# T1: ARHGAP21, Q5T5U3
# T1 sequence (Q5T5U3 45-169, limits assumed, looked up): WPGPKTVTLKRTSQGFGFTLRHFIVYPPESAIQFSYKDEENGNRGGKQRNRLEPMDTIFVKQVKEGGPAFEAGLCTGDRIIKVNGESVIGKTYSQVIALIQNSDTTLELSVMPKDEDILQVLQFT
# T2: PDZD7_3, Q9H5P4
# T2 sequence (Q9H5P4 857-944, limits assumed, looked up): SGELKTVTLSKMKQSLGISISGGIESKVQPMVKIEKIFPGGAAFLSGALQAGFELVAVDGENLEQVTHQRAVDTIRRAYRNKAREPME
# T3: NHERF3_4, Q5T2W1
# T3 sequence (Q5T2W1 373-468, limits assumed, looked up): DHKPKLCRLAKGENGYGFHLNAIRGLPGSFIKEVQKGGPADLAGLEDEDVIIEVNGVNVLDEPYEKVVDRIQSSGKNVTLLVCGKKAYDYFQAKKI
# T4: FRMPD1, Q5SYB0
# T4 sequence (Q5SYB0 52-145, limits assumed, looked up): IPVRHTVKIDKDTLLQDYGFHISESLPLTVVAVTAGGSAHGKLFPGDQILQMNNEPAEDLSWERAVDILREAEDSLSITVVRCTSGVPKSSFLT
# T5: HTRA3, P83110
# T5 sequence (P83110 354-453, limits assumed, looked up): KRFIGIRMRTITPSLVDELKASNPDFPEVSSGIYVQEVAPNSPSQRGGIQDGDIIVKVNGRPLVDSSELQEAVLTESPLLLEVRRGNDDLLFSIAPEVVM
# T6: NHERF3_3, Q5T2W1
# T6 sequence (Q5T2W1 238-333, limits assumed, looked up): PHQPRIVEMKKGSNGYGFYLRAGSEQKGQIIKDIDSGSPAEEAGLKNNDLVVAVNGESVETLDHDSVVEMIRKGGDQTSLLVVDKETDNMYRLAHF
# T7: PDZD2_2, O15018
# T7 sequence (O15018 329-429, limits assumed, looked up): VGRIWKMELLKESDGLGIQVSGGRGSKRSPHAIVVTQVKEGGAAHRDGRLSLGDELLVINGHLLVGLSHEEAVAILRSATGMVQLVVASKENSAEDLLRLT
# T8: GRIP1_3, Q9Y3R0
# T8 sequence (Q9Y3R0 247-346, limits assumed, looked up): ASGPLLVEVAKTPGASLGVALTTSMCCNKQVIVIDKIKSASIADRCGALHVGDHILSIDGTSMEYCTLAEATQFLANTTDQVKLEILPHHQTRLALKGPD
# T9: APBA2_2, Q99767
# T9 sequence (Q99767 654-744, limits assumed, looked up): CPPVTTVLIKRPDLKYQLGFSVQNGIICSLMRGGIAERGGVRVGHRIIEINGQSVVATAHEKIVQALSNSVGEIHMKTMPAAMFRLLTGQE
# T10: LNX2_3, Q8N448
# T10 sequence (Q8N448 463-564, limits assumed, looked up): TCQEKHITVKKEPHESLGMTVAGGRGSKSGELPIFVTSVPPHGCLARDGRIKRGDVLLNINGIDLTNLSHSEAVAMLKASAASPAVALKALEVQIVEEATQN
# T11: APBA2_1, Q99767
# T11 sequence (Q99767 563-664, limits assumed, looked up): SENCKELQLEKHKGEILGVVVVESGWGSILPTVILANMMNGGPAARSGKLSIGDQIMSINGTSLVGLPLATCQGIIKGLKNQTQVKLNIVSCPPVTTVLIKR
# T12: LRRC7, Q96NW7
# T12 sequence (Q96NW7 1440-1537, limits assumed, looked up): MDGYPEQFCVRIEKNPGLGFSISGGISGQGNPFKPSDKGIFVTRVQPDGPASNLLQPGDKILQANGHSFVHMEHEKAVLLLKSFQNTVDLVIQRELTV
# T13: TJP3_3, O95049
# T13 sequence (O95049 375-456, limits assumed, looked up): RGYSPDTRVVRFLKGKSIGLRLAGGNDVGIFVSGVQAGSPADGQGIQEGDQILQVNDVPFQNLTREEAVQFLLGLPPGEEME
# B1: IGSF5, Q9NSI5 (peptide)
# chain: PEKVSNTTVV
# B2: KCNA6, P17658 (peptide)
# chain: YAEKRMLTEV
# B3: DFNB31, Q9P202 (peptide)
# chain: FLVTEFNVML
# Target: DLG1_1, Q12959
# Experiment: holdup assay
# Parameters: key: below the threshold = too weak to quantify, mostly under pKd 3.1 to 4
# Details: plain residues with an end cap or a label only (N-terminal biotin on a linker: ado-ado)
row,pKd,Binder
1,4.25,B1
2,3.91,B2
3,below the threshold,B3

# Target: T1, ARHGAP21, Q5T5U3
# Experiment: holdup assay
# Parameters: key: below the threshold = too weak to quantify, mostly under pKd 3.1 to 4
# Details: plain residues with an end cap or a label only (N-terminal biotin on a linker: ado-ado)
row,pKd,Binder
1,below the threshold,B1
2,below the threshold,B2
3,4.61,B3

# Target: Inadl_5, Q8NI35
# Sequence (Q8NI35 673-780): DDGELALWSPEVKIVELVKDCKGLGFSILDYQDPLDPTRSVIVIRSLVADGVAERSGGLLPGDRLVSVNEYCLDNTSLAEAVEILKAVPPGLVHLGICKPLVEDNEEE
# Experiment: holdup assay
# Parameters: key: below the threshold = too weak to quantify, mostly under pKd 3.1 to 4
# Details: plain residues with an end cap or a label only (N-terminal biotin on a linker: ado-ado)
row,pKd,Binder
1,below the threshold,B1
2,below the threshold,B2
3,below the threshold,B3

# Target: T2, PDZD7_3, Q9H5P4
# Experiment: holdup assay
# Parameters: key: below the threshold = too weak to quantify, mostly under pKd 3.1 to 4
# Details: plain residues with an end cap or a label only (N-terminal biotin on a linker: ado-ado)
row,pKd,Binder
1,4.66,B1
2,4.95,B2
3,4.47,B3

# Target: MAST1, Q9Y2H9
# Sequence (Q9Y2H9 962-1065): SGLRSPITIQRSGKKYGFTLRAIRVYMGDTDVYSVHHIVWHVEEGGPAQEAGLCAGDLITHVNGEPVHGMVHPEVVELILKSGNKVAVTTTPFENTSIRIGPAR
# Experiment: holdup assay
# Parameters: key: below the threshold = too weak to quantify, mostly under pKd 3.1 to 4
# Details: plain residues with an end cap or a label only (N-terminal biotin on a linker: ado-ado)
row,pKd,Binder
1,4.53,B1
2,4.65,B2
3,3.89,B3

# Target: FRMPD3, Q5JV73
# Sequence (Q5JV73 12-100): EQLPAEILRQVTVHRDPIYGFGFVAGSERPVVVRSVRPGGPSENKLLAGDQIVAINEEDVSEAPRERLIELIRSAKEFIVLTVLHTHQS
# Experiment: holdup assay
# Parameters: key: below the threshold = too weak to quantify, mostly under pKd 3.1 to 4
# Details: plain residues with an end cap or a label only (N-terminal biotin on a linker: ado-ado)
row,pKd,Binder
1,below the threshold,B1
2,below the threshold,B2
3,3.97,B3

# Target: GRIP2_7, Q9C0E4
# Sequence (Q9C0E4 934-1023): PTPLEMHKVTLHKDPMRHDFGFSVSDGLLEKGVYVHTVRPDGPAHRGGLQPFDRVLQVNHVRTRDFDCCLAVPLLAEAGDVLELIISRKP
# Experiment: holdup assay
# Parameters: key: below the threshold = too weak to quantify, mostly under pKd 3.1 to 4
# Details: plain residues with an end cap or a label only (N-terminal biotin on a linker: ado-ado)
row,pKd,Binder
1,below the threshold,B1
2,below the threshold,B2
3,below the threshold,B3

# Target: GOPC, Q9HD26
# Experiment: holdup assay
# Parameters: key: below the threshold = too weak to quantify, mostly under pKd 3.1 to 4
# Details: plain residues with an end cap or a label only (N-terminal biotin on a linker: ado-ado)
row,pKd,Binder
1,3.61,B1
2,3.74,B2
3,below the threshold,B3

# Target: IL16_3, Q14005
# Sequence (Q14005 1107-1207): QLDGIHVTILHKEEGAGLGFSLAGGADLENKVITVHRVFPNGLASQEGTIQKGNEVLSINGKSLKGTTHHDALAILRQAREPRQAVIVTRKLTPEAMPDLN
# Experiment: holdup assay
# Parameters: key: below the threshold = too weak to quantify, mostly under pKd 3.1 to 4
# Details: plain residues with an end cap or a label only (N-terminal biotin on a linker: ado-ado)
row,pKd,Binder
1,below the threshold,B1
2,below the threshold,B2
3,below the threshold,B3

# Target: T3, NHERF3_4, Q5T2W1
# Experiment: holdup assay
# Parameters: key: below the threshold = too weak to quantify, mostly under pKd 3.1 to 4
# Details: plain residues with an end cap or a label only (N-terminal biotin on a linker: ado-ado)
row,pKd,Binder
1,below the threshold,B1
2,below the threshold,B2
3,4.55,B3

# Target: TJP1_3, Q07157
# Sequence (Q07157 416-512): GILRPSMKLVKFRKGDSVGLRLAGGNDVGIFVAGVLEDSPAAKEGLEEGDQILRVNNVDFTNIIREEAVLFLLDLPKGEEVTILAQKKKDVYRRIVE
# Experiment: holdup assay
# Parameters: key: below the threshold = too weak to quantify, mostly under pKd 3.1 to 4
# Details: plain residues with an end cap or a label only (N-terminal biotin on a linker: ado-ado)
row,pKd,Binder
1,below the threshold,B1
2,below the threshold,B2
3,below the threshold,B3

# Target: T4, FRMPD1, Q5SYB0
# Experiment: holdup assay
# Parameters: key: below the threshold = too weak to quantify, mostly under pKd 3.1 to 4
# Details: plain residues with an end cap or a label only (N-terminal biotin on a linker: ado-ado)
row,pKd,Binder
1,below the threshold,B1
2,below the threshold,B2
3,below the threshold,B3

# Target: T5, HTRA3, P83110
# Experiment: holdup assay
# Parameters: key: below the threshold = too weak to quantify, mostly under pKd 3.1 to 4
# Details: plain residues with an end cap or a label only (N-terminal biotin on a linker: ado-ado)
row,pKd,Binder
1,below the threshold,B1
2,below the threshold,B2
3,below the threshold,B3

# Target: T6, NHERF3_3, Q5T2W1
# Experiment: holdup assay
# Parameters: key: below the threshold = too weak to quantify, mostly under pKd 3.1 to 4
# Details: plain residues with an end cap or a label only (N-terminal biotin on a linker: ado-ado)
row,pKd,Binder
1,below the threshold,B1
2,below the threshold,B2
3,below the threshold,B3

# Target: DLG2_3, Q15700
# Experiment: holdup assay
# Parameters: key: below the threshold = too weak to quantify, mostly under pKd 3.1 to 4
# Details: plain residues with an end cap or a label only (N-terminal biotin on a linker: ado-ado)
row,pKd,Binder
1,3.83,B1
2,3.98,B2
3,below the threshold,B3

# Target: Inadl_3, Q8NI35
# Sequence (Q8NI35 359-469): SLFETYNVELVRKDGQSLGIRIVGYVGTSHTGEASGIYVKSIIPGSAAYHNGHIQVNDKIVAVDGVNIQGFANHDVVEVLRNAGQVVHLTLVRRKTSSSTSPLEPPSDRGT
# Experiment: holdup assay
# Parameters: key: below the threshold = too weak to quantify, mostly under pKd 3.1 to 4
# Details: plain residues with an end cap or a label only (N-terminal biotin on a linker: ado-ado)
row,pKd,Binder
1,3.48,B1
2,below the threshold,B2
3,4.73,B3

# Target: T7, PDZD2_2, O15018
# Experiment: holdup assay
# Parameters: key: below the threshold = too weak to quantify, mostly under pKd 3.1 to 4
# Details: plain residues with an end cap or a label only (N-terminal biotin on a linker: ado-ado)
row,pKd,Binder
1,4.06,B1
2,4.34,B2
3,3.63,B3

# Target: T8, GRIP1_3, Q9Y3R0
# Experiment: holdup assay
# Parameters: key: below the threshold = too weak to quantify, mostly under pKd 3.1 to 4
# Details: plain residues with an end cap or a label only (N-terminal biotin on a linker: ado-ado)
row,pKd,Binder
1,below the threshold,B1
2,below the threshold,B2
3,below the threshold,B3

# Target: T9, APBA2_2, Q99767
# Experiment: holdup assay
# Parameters: key: below the threshold = too weak to quantify, mostly under pKd 3.1 to 4
# Details: plain residues with an end cap or a label only (N-terminal biotin on a linker: ado-ado)
row,pKd,Binder
1,below the threshold,B1
2,below the threshold,B2
3,below the threshold,B3

# Target: T10, LNX2_3, Q8N448
# Experiment: holdup assay
# Parameters: key: below the threshold = too weak to quantify, mostly under pKd 3.1 to 4
# Details: plain residues with an end cap or a label only (N-terminal biotin on a linker: ado-ado)
row,pKd,Binder
1,below the threshold,B1
2,below the threshold,B2
3,below the threshold,B3

# Target: LNX1_1, Q8TBB1
# Sequence (Q8TBB1 261-371): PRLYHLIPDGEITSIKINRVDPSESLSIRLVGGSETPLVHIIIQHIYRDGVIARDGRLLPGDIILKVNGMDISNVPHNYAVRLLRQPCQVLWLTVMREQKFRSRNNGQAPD
# Experiment: holdup assay
# Parameters: key: below the threshold = too weak to quantify, mostly under pKd 3.1 to 4
# Details: plain residues with an end cap or a label only (N-terminal biotin on a linker: ado-ado)
row,pKd,Binder
1,3.67,B1
2,below the threshold,B2
3,below the threshold,B3

# Target: T11, APBA2_1, Q99767
# Experiment: holdup assay
# Parameters: key: below the threshold = too weak to quantify, mostly under pKd 3.1 to 4
# Details: plain residues with an end cap or a label only (N-terminal biotin on a linker: ado-ado)
row,pKd,Binder
1,below the threshold,B1
2,below the threshold,B2
3,below the threshold,B3

# Target: T12, LRRC7, Q96NW7
# Experiment: holdup assay
# Parameters: key: below the threshold = too weak to quantify, mostly under pKd 3.1 to 4
# Details: plain residues with an end cap or a label only (N-terminal biotin on a linker: ado-ado)
row,pKd,Binder
1,below the threshold,B1
2,below the threshold,B2
3,3.64,B3

# Target: T13, TJP3_3, O95049
# Experiment: holdup assay
# Parameters: key: below the threshold = too weak to quantify, mostly under pKd 3.1 to 4
# Details: plain residues with an end cap or a label only (N-terminal biotin on a linker: ado-ado)
row,pKd,Binder
1,below the threshold,B1
2,below the threshold,B2
3,below the threshold,B3

# Target: Inadl_9, Q8NI35
# Sequence (Q8NI35 1530-1615): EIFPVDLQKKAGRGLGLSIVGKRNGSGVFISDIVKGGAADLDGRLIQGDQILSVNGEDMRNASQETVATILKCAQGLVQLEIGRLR
# Experiment: holdup assay
# Parameters: key: below the threshold = too weak to quantify, mostly under pKd 3.1 to 4
# Details: plain residues with an end cap or a label only (N-terminal biotin on a linker: ado-ado)
row,pKd,Binder
1,below the threshold,B1
2,below the threshold,B2
3,below the threshold,B3
